# Residue numbers refer to the chain shown, from its start.
# B1: TN3-2-B (monomeric) (designed binder)
# chain: ALQTVCLKGTKVHMKCFLAFTQTKTFHEASEDCISRGGTLSTPQTGSENDALYEYLRQSVGNEAEIWLGLNKVRSRYFWMDMTGTRIAYKNWETEITAQPDPTNNENCAVLSGAANGKWFGKRCRDQLPYICQFGIV
# notes: Purified monomer from the E. coli periplasm (pBAD) for SPR
# B2: TN3-2-C (monomeric) (designed binder)
# chain: B1 chain with M80V, N105R, G121D
# notes: as for B1
# B3: TN3-2-D (monomeric) (designed binder)
# chain: B1 chain with M80I, T103N, N105R
# notes: as for B1
# B4: TN-2-B (trimeric) (designed binder)
# chain: EPPTQKPKKIVNAKKDVVNTKMFEELKSRLDTLAQEVALLKEQQALQTVCLKGTKVHMKCFLAFTQTKTFHEASEDCISRGGTLSTPQTGSENDALYEYLRQSVGNEAEIWLGLNKVRSRYFWMDMTGTRIAYKNWETEITAQPDPTNNENCAVLSGAANGKWFGKRCRDQLPYICQFGIV
# notes: also called trimeric version of TN3-2-B
# B5: TN-2-C (trimeric) (designed binder)
# chain: B4 chain with M124V, N149R, G165D
# notes: also called trimeric version of TN3-2-C
# B6: TN-2-D (trimeric) (designed binder)
# chain: B4 chain with M124I, T147N, N149R
# notes: also called trimeric version of TN3-2-D
# Target: T1, TNF alpha (UniProt P01375 77-233, limits assumed)
# T1 construct: also called tumour necrosis factor; TNFSF2
# T1 sequence (P01375 77-233 limits assumed): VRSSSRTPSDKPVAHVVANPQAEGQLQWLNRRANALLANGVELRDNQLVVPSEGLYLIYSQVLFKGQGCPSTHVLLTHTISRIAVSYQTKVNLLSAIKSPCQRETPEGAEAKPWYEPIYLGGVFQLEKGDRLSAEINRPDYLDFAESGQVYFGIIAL
# Assay: SPR (BIAcore 3000), TNF alpha captured by immobilised antibody AHC3712, binder injected
# Procedure: (§1) Surface plasmon resonance (SPR) binding analysis was performed on a BIAcore 3000 instrument (BiaCore, Sweden). TNF alpha capture antibody (AHC3712, Biosource International) to be immobilized was dissolved in 10 mM NaAcetate pH 5.0 and then immobilized on a CM5 BiaCore sensor chip using the Amine Coupling kit (BiaCore, Sweden).
# (§2) Binding analysis was performed at a flow rate of 5 μl/min. Before loading of the protein sample, the chip was equilibrated in 10 mM Tris pH 8.0, 150 mM NaCl, 2 mM CaCl₂, 50 μM EDTA and 0.005% Surfactant P20. TNF alpha was dissolved in 10 mM Tris pH 8.0, 150 mM NaCl, 2 mM CaCl₂ at 10 μg/mL and 10 μL was injected. Aliquots (20 μl) of TNF alpha binders in monomeric or the trimeric format were injected using the KINJECT option. Five min of dissociation were allowed before the chip was regenerated with 10 mM Glycine pH 2.5. Binding of TNF alpha binders was tested at six different protein concentrations, ranging from 1 to 200 nM. Binding data were evaluated using the BIAevaluation program version 3.2 (BiaCore).
Kd [nM],koff [s⁻¹],kon [M⁻¹ s⁻¹],Binder
73,0.923,1.4e+07,B1
150,0.022,134000,B2
50,0.0185,364000,B3
~0.24,0.000736,3.02e+06,B4
4,0.00353,884000,B5
4.1,0.00207,506000,B6

# Target: T1, TNF alpha
# Assay: SPR; off rate of the trimer against monomeric TN3-2-B
# Procedure: as §1, §2
row,fold improvement of off value [fold],Binder
1,> 1000,B4

# Target: T1, TNF alpha
# Assay: SPR; fold increase in affinity of the trimer over monomeric TN3-2-D
# Procedure: as §1, §2
row,Fold increase [fold],Binder
1,12,B6

# Target: T1, TNF alpha
# Assay: SPR; fold increase in affinity of the trimer over monomeric TN3-2-C
# Procedure: as §1, §2
row,Fold increase [fold],Binder
1,37,B5

# Target: T1, TNF alpha
# Assay: SPR; fold increase in affinity of the trimer over monomeric TN3-2-B
# Procedure: as §1, §2
row,Fold increase [fold],Binder
1,304,B4
